Results from article PMC12117405.

Molecular target: Lsm2/Lsm3;Lsm6/Lsm5/Lsm7;Lsm4-link-Lsm8 (human;human;human, UniProt Q9Y333;P62310;P62312;Q9Y4Y9;Q9UK45;Q9Y4Z0;O95777 …, ||)
Experiment: gel filtration co-elution

GGCAAUUUUUGACAGUCUCUACGGAGACUG (structured_RNA) [U4-5'Δ]
binding result: no binding
